Results published in patent US9512172B2, “Ethanol dependence of alpha1 antitrypsin C-terminal Lys truncation by basic carboxypeptidases” (Baxalta Incorporated, priority 2006, dated 2016).

Columns and labels:
[1] = molecular target: T1, CPN present in the paste (Homo sapiens, UniProt P15169); experiment: Effect of CP inhibitors on C-terminal lysine truncation in dissolved, ethanol-treated IV-1 paste (IEF); format: biochemical
T1 construct: Cohn IV-1 precipitate is usually derived after ethanol fractionation of plasma; from tissue; host or cells: Cohn IV-1 paste (ethanol precipitate of plasma)
T1 sequence (P15169 21-458): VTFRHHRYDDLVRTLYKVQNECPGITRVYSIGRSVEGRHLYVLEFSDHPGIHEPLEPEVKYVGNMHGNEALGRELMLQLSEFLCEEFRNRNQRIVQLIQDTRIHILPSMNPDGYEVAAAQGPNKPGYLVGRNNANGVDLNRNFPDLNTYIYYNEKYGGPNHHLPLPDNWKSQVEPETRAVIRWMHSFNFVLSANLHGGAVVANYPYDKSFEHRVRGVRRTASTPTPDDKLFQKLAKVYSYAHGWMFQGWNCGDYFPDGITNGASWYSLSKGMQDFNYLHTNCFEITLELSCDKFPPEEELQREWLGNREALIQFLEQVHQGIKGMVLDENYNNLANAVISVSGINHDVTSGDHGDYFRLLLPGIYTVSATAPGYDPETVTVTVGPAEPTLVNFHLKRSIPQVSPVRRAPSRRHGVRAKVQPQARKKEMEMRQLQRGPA
T1 sequence (P22792 22-545 partner): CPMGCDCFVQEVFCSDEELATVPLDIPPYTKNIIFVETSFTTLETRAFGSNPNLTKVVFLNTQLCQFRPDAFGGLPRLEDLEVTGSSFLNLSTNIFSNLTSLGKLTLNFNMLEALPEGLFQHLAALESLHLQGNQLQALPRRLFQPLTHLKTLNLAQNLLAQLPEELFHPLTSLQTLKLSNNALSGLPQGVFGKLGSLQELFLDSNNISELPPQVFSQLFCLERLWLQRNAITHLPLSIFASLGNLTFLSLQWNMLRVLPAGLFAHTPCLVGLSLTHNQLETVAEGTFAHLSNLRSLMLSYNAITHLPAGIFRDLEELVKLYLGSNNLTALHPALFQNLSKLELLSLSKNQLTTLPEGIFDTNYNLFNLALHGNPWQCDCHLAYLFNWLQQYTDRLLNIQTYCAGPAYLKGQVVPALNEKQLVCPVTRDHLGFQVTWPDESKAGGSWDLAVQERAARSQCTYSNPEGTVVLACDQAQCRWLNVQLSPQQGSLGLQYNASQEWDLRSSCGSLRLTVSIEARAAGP
Procedure: (§1) Cohn IV-1 paste was dissolved in 2.6 volumes of 10 mM Tris-buffer at pH 8.8 and incubated for 30 min at 22° C. The suspension was made 40% in ethanol (by addition of 2.4 volumes of ethanol), stirred for a further 60 min, diluted with the same Tris-buffer to 10% ethanol and extracted for a further 6 h.
The following inhibitors were added in parallel during extraction and dilution with Tris-buffer: 100 mM 6-aminocaproic acid, 10 μM or 1 nM 2-mercaptomethyl-3-guanidinoethylthiopropanoic acid (a more specific inhibitor of CPN). The samples were characterized by high resolution isoelectric focusing.
(§2) For high resolution isoelectric focusing a new hybrid IEF method using IPG-Immobiline gels (GE Healthcare Bio-Sciences, pI 4.2-4.9, Uppsala, Sweden) was developed which is similar to that described by Weidinger^54. Samples were diluted with water to 0.5 mg A1PI/mL and 5 mM DTE was added. Samples (20 μl) were applied close to the cathode on the pre-focused gel and focused for 150 min (5000 Vh). For paste extracts focusing time was extended to 420 min. Gels were stained with Coomassie Brilliant Blue G-250 (BioRad, Hercules, USA) as described by Neuhoff^55. Blotting and immunostaining were done with a rabbit anti-A1PI antibody (Rabbit Anti-Human Alpha-1-Antitrypsin, #A0012, DakoCytomation, Glostrup, Denmark).

[2] = molecular target: T2, CPN (Homo sapiens, UniProt P15169); experiment: CPN-catalysed removal of C-terminal lysine from A1PI products, released Lys by HPLC; format: biochemical; design: purchased Elastin Company; settings: for Ethanol concentration at which linear increase of Lys removal starts: incubation with CPN, 10 min
T2 sequence (P15169 21-458): T1 sequence (P15169 21-458)
T2 sequence (P22792 22-545 partner): T1 sequence (P22792 22-545 partner)
Procedure: The cleaved C-terminal lysine of A1PI was determined using automated orthophtalicdialdehyd (OPA) pre-column derivatization and high-performance liquid chromatography. The derivatization reagent was prepared by dissolving 100 mg of OPA in 2.5 mL of methanol by short ultrasonication, adding 23 mL of deoxygenated sodium borate buffer (0.2 mol/L, pH 9.0), 100 μl of 2-mercaptoethanol and 100 μl of Brij 35 as described^53. The system used was an ASTED HPLC system (Gilson, Paris) with Shimadzu RF-A fluorescence detector and a C-18 Chromolith ODS 4.7*100 mm column. A mixture of 50 mM KH2PO4, acetonitrile and methanol (ratio 50:24:26) was used as mobile phase and ornithine was used as internal standard.
To 30 μl 0.5 mM A1PI (using ARALAST® (Alpha1-Proteinase Inhibitor (Human)) or PROLASTIN® (Alpha1-Proteinase Inhibitor (Human))) 10 μl water or ethanol (different concentrations) was added. Afterwards 10 μl CPN (500 U/L) was added and after a 10 minutes incubation interval the reaction was stopped by adding 50 μl internal standard in 0.25 M HCl. The cleaved lysine was quantified as described above.

[3] = HP-SEC aggregate content of A1PI products; format: physicochemical
Procedure: (§3) ARALAST® (Alpha1-Proteinase Inhibitor (Human)), Prolastin PROLASTIN® (Alpha1-Proteinase Inhibitor (Human)), and ZEMAIRA® (Alpha1-Proteinase Inhibitor (Human)) were analyzed by high-resolution IEF and high-performance size-exclusion chromatography (HP-SEC). Preparative separated isoforms from IEF were further purified by chromatography and subjected to mass spectrometry for sequence analyses, peptide mapping, and glycosylation analysis. Deamidation was quantified by enzymatic isoaspartate detection. Multiple sequence alignments and structural bioinformatics analyses were performed.

[4] = Percent C-terminal Lys truncated (des-Lys) A1PI in A1PI products; format: physicochemical, human; settings: commercial product
Procedure: as §3

[5] = system: A1PI; experiment: C-terminal Lys truncation of A1PI in dissolved Cohn IV-1 paste (IEF); format: biochemical, human; settings: presence of only 10% ethanol; CPB added, CPN as present in the paste
Procedure: as §1
IV-1 paste was dissolved in 20.6 volumes of 10 mM Tris-buffer at pH 8.8 and incubated during 30 min at 22° C. The suspension was made 10% in ethanol (by addition of 2.4 volumes of ethanol) and stirred for a further 6 h at 22° C. and pH 8.8.
as §2

[6] = system: A1PI; experiment: Incubation of purified non-truncated A1PI with carboxypeptidases, analysis by IEF; format: biochemical, human; settings: for Lys truncation of A1PI by carboxypeptidase: A1PI in temporary contact with 40% ethanol, then diluted to 10% ethanol; for C-terminal lys removal from A1PI by carboxypeptidase: in the presence of only 10% ethanol
Procedure: A1PI solutions were incubated with different CPs. Temporary exposure to 40% ethanol was achieved by diluting the A1PI preparation (38 μM) with 96% ethanol. The precipitate formed was kept 30 min at −20° C. and a further 30 min at +4° C., before it was diluted with TRIS-HCl buffer (pH 8.8) to a final concentration of 10% ethanol. Concomitantly, CPs were added with the TRIS buffer and the reaction mixture containing 10 μM A1PI was then incubated at 37° C. for 60 min. Before IEF analysis dithioerythritol (DTE) was added to a final concentration of 5 mM. In addition, the incubation with CPs was done without ethanol or at 10% ethanol. Furthermore, we ran two concentration rows with either CPN (270-1 mU/ml) or CPM (250-10 mU/ml) after temporary exposure of A1PI to 40% ethanol (CPN units were tested against Hip-Arg).
as §2

With `NCCCCCC(=O)O` [6-amino caproic acid] the “Inhibition of Lys truncation induced by the procedure 40=>10% EtOH” value ([1]; dissolved IV-1 paste, pH 8.8, 6 h) was “could be inhibited” and the “Inhibition of lysine removal from A1PI” value ([1]; inhibitor at 100 mM) was “completely inhibited”.

For “ARALAST: Alpha1-Proteinase Inhibitor (Human), approved plasma-derived A1PI concentrate, made from Cohn IV-1+IV-4 paste”, the “Ethanol concentration at which linear increase of Lys removal starts” value [2] was 10 % ethanol.

With “PROLASTIN: Alpha1-Proteinase Inhibitor (Human), approved plasma-derived A1PI concentrate, purified from fraction IV-1” the Aggregate content [3] was “approximately 30%”, the “Lys removed by CPN” value ([2]; absence of ethanol) was “very small amounts” and the “Ethanol concentration at which linear increase of Lys removal starts” value [2] was 5 % ethanol.

With “ZEMAIRA: Alpha1-Proteinase Inhibitor (Human), approved plasma-derived A1PI concentrate” the “Percent of A1PI C-terminal truncation as compared to total A1PI protein” value [4] was 6%.

B1: CPN: carboxypeptidase N, EC 3.4.17.3, basic carboxypeptidase of plasma (protein, UniProt P15169 21-458; P22792 22-545, looked up)
Carboxypeptidase N catalytic …: T1 sequence (P15169 21-458)
Carboxypeptidase N subunit 2: T1 sequence (P22792 22-545 partner)
With B1 the “Lys truncation of A1PI in dissolved IV-1 paste by carboxypeptidase” value [5] was “did not remove the C-terminal lysine”, the “C-terminal lysines cleaved from purified uncleaved A1PI” value ([6]; 50 mU CPN/ml) was 10-20% and the “Lys truncation of A1PI by carboxypeptidase” value [6] was ~60%. The “C-terminal lys removal from A1PI by carboxypeptidase” value [6] was “slightly”.

B2: CPM: carboxypeptidase M, EC 3.4.17.12, recombinant, expressed in P. pastoris (protein, UniProt P14384 18-423, looked up)
Carboxypeptidase M: LDFNYHRQEGMEAFLKTVAQNYSSVTHLHSIGKSVKGRNLWVLVVGRFPKEHRIGIPEFKYVANMHGDETVGRELLLHLIDYLVTSDGKDPEITNLINSTRIHIMPSMNPDGFEAVKKPDCYYSIGRENYNQYDLNRNFPDAFEYNNVSRQPETVAVMKWLKTETFVLSANLHGGALVASYPFDNGVQATGALYSRSLTPDDDVFQYLAHTYASRNPNMKKGDECKNKMNFPNGVTNGYSWYPLQGGMQDYNYIWAQCFEITLELSCCKYPREEKLPSFWNNNKASLIEYIKQVHLGVKGQVFDQNGNPLPNVIVEVQDRKHICPYRTNKYGEYYLLLLPGSYIINVTVPGHDPHITKVIIPEKSQNFSALKKDILLPFQGQLDSIPVSNPSCPMIPLYRNLPDHS
With B2 the “Carboxypeptidase concentration inducing 50% C-terminal A1PI truncation” value ([6]; 40% ethanol-pretreated purified A1PI) was 50 mU/ml and the “Lys truncation of A1PI by carboxypeptidase” value [6] was “almost complete”.

B3: CPB: carboxypeptidase B, EC 3.4.17.2, small 35 kDa carboxypeptidase from pancreas (protein, UniProt P15086 111-417, looked up)
Carboxypeptidase B: ATGHSYEKYNKWETIEAWTQQVATENPALISRSVIGTTFEGRAIYLLKVGKAGQNKPAIFMDCGFHAREWISPAFCQWFVREAVRTYGREIQVTELLDKLDFYVLPVLNIDGYIYTWTKSRFWRKTRSTHTGSSCIGTDPNRNFDAGWCEIGASRNPCDETYCGPAAESEKETKALADFIRNKLSSIKAYLTIHSYSQMMIYPYSYAYKLGENNAELNALAKATVKELASLHGTKYTYGPGATTIYPAAGGSDDWAYDQGIRYSFTFELRDTGRYGFLLPESQIRATCEETFLAIKYVASYVLEHLY
For B3, the “Lys truncation of A1PI in dissolved IV-1 paste by carboxypeptidase” value [5] was “almost complete”, the “Lys truncation of A1PI by carboxypeptidase” value [6] was “almost complete” and the “C-terminal lys removal from A1PI by carboxypeptidase” value [6] was “completely truncate”.
